The source of these data is patent US20130005646A1 (Novo Nordisk, published 2013).

Starred links: 1 amine or outer side, 2 acyl side, 3 side chain; linkers in the order of their positions; H or OH if unused. Positions of bridges follow the written chain, without caps; N, C: chain ends. *: point of attachment. C20 diacid = O=C(O)CCCCCCCCCCCCCCCCCCC(=O)*; 19‑carboxyheptadecanoyl = not defined here; C18 diacid = O=C(O)CCCCCCCCCCCCCCCCC(=O)*; γGlu = O=C(O)[C@H](CCC(=O)[*:2])N[*:1]; AEEA = NCCOCCOCC(=O)O

The target in assay [1] is T1, human amylin 3(a) receptor (human calcitonin receptor + RAMP-3) (human, UniProt P30988 25-474; O60896 24-148).
T1 sequence (looked up) 1: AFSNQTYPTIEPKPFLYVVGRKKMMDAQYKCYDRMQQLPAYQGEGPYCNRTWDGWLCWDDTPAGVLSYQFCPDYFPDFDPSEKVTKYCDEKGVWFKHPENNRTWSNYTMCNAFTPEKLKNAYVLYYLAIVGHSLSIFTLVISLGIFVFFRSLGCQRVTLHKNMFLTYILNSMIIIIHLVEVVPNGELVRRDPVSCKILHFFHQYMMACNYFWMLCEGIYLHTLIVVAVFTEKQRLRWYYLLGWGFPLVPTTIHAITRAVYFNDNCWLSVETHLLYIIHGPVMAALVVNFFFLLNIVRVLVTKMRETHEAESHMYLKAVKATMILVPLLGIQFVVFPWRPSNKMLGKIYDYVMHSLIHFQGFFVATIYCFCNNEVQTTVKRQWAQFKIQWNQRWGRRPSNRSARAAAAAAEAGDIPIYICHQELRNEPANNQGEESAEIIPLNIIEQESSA
T1 sequence (looked up) 2: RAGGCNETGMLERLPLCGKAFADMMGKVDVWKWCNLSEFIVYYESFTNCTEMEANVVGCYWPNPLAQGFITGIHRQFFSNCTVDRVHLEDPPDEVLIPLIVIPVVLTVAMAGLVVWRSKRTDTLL
Description: cell-based or functional assay.

In assay [2] the target is T2, human calcitonin (a) receptor (human, UniProt P30988 25-474).
T2 sequence (looked up): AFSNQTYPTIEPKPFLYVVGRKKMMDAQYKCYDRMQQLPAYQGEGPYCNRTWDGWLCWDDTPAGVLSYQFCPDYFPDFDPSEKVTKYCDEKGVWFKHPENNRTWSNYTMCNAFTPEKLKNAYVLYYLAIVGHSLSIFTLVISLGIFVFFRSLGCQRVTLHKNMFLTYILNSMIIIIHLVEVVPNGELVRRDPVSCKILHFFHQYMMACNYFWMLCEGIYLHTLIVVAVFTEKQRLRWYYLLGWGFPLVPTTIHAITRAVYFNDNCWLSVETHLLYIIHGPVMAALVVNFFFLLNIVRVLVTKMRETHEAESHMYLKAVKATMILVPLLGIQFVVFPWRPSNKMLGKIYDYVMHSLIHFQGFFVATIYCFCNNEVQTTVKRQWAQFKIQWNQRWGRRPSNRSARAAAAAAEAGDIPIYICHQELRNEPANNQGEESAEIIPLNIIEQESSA
The assay is described as follows: cell-based or functional assay.

B1: N-alpha-[(S)-4-Carboxy-4-(17-carboxyheptadecanoylamino)butyryl]-His-His-[His1,Glu14,His17]-pramlintide (peptide)
peptide: {C18 diacid-γGlu}-HHHCNTATCATQRLAEFLHHSSNNFGPILPPTNVGSNTY-NH2
modifications: disulfide 4-9
SMILES: CC[C@H](C)[C@H](NC(=O)[C@@H]1CCCN1C(=O)CNC(=O)[C@H](Cc1ccccc1)NC(=O)[C@H](CC(N)=O)NC(=O)[C@H](CC(N)=O)NC(=O)[C@H](CO)NC(=O)[C@H](CO)NC(=O)[C@H](Cc1c[nH]cn1)NC(=O)[C@H](Cc1c[nH]cn1)NC(=O)[C@H](CC(C)C)NC(=O)[C@H](Cc1ccccc1)NC(=O)[C@H](CCC(=O)O)NC(=O)[C@H](C)NC(=O)[C@H](CC(C)C)NC(=O)[C@H](CCCNC(=N)N)NC(=O)[C@H](CCC(N)=O)NC(=O)[C@@H](NC(=O)[C@H](C)NC(=O)[C@@H]1CSSC[C@H](NC(=O)[C@H](Cc2c[nH]cn2)NC(=O)[C@H](Cc2c[nH]cn2)NC(=O)[C@H](Cc2c[nH]cn2)NC(=O)CC[C@H](NC(=O)CCCCCCCCCCCCCCCCC(=O)O)C(=O)O)C(=O)N[C@@H](CC(N)=O)C(=O)N[C@@H]([C@@H](C)O)C(=O)N[C@@H](C)C(=O)N[C@@H]([C@@H](C)O)C(=O)N1)[C@@H](C)O)C(=O)N[C@@H](CC(C)C)C(=O)N1CCC[C@H]1C(=O)N1CCC[C@H]1C(=O)N[C@H](C(=O)N[C@@H](CC(N)=O)C(=O)N[C@H](C(=O)NCC(=O)N[C@@H](CO)C(=O)N[C@@H](CC(N)=O)C(=O)N[C@H](C(=O)N[C@@H](Cc1ccc(O)cc1)C(N)=O)[C@@H](C)O)C(C)C)[C@@H](C)O
B1: the “Amylin receptor human EC50” value in assay [1] came out at 0.0624 nM. Also, the “CTa receptor human EC50” value in assay [2] was 0.265 nM.

B2: N-alpha-[(S)-4-Carboxy-4-(19-carboxynonadecanoylamino)butyryl]-Glu-Glu-[Glu14,His17]-pramlintide (peptide)
peptide: {C20 diacid-γGlu}-EEKCNTATCATQRLAEFLHHSSNNFGPILPPTNVGSNTY-NH2
modifications: disulfide 4-9
SMILES: CC[C@H](C)[C@H](NC(=O)[C@@H]1CCCN1C(=O)CNC(=O)[C@H](Cc1ccccc1)NC(=O)[C@H](CC(N)=O)NC(=O)[C@H](CC(N)=O)NC(=O)[C@H](CO)NC(=O)[C@H](CO)NC(=O)[C@H](Cc1c[nH]cn1)NC(=O)[C@H](Cc1c[nH]cn1)NC(=O)[C@H](CC(C)C)NC(=O)[C@H](Cc1ccccc1)NC(=O)[C@H](CCC(=O)O)NC(=O)[C@H](C)NC(=O)[C@H](CC(C)C)NC(=O)[C@H](CCCNC(=N)N)NC(=O)[C@H](CCC(N)=O)NC(=O)[C@@H](NC(=O)[C@H](C)NC(=O)[C@@H]1CSSC[C@H](NC(=O)[C@H](CCCCN)NC(=O)[C@H](CCC(=O)O)NC(=O)[C@H](CCC(=O)O)NC(=O)CC[C@H](NC(=O)CCCCCCCCCCCCCCCCCCC(=O)O)C(=O)O)C(=O)N[C@@H](CC(N)=O)C(=O)N[C@@H]([C@@H](C)O)C(=O)N[C@@H](C)C(=O)N[C@@H]([C@@H](C)O)C(=O)N1)[C@@H](C)O)C(=O)N[C@@H](CC(C)C)C(=O)N1CCC[C@H]1C(=O)N1CCC[C@H]1C(=O)N[C@H](C(=O)N[C@@H](CC(N)=O)C(=O)N[C@H](C(=O)NCC(=O)N[C@@H](CO)C(=O)N[C@@H](CC(N)=O)C(=O)N[C@H](C(=O)N[C@@H](Cc1ccc(O)cc1)C(N)=O)[C@@H](C)O)C(C)C)[C@@H](C)O
Turning to B2, the “Amylin receptor human EC50” value in assay [1] is 0.402 nM. The “CTa receptor human EC50” value in assay [2] came out at 0.798 nM.

B3: N-alpha-[(S)-4-Carboxy-4-(19-carboxynonadecanoylamino)butyryl]-Glu-[His1,Glu14,His17]-pramlintide (peptide)
peptide: {C20 diacid-γGlu}-EHCNTATCATQRLAEFLHHSSNNFGPILPPTNVGSNTY-NH2
modifications: disulfide 3-8
SMILES: CC[C@H](C)[C@H](NC(=O)[C@@H]1CCCN1C(=O)CNC(=O)[C@H](Cc1ccccc1)NC(=O)[C@H](CC(N)=O)NC(=O)[C@H](CC(N)=O)NC(=O)[C@H](CO)NC(=O)[C@H](CO)NC(=O)[C@H](Cc1c[nH]cn1)NC(=O)[C@H](Cc1c[nH]cn1)NC(=O)[C@H](CC(C)C)NC(=O)[C@H](Cc1ccccc1)NC(=O)[C@H](CCC(=O)O)NC(=O)[C@H](C)NC(=O)[C@H](CC(C)C)NC(=O)[C@H](CCCNC(=N)N)NC(=O)[C@H](CCC(N)=O)NC(=O)[C@@H](NC(=O)[C@H](C)NC(=O)[C@@H]1CSSC[C@H](NC(=O)[C@H](Cc2c[nH]cn2)NC(=O)[C@H](CCC(=O)O)NC(=O)CC[C@H](NC(=O)CCCCCCCCCCCCCCCCCCC(=O)O)C(=O)O)C(=O)N[C@@H](CC(N)=O)C(=O)N[C@@H]([C@@H](C)O)C(=O)N[C@@H](C)C(=O)N[C@@H]([C@@H](C)O)C(=O)N1)[C@@H](C)O)C(=O)N[C@@H](CC(C)C)C(=O)N1CCC[C@H]1C(=O)N1CCC[C@H]1C(=O)N[C@H](C(=O)N[C@@H](CC(N)=O)C(=O)N[C@H](C(=O)NCC(=O)N[C@@H](CO)C(=O)N[C@@H](CC(N)=O)C(=O)N[C@H](C(=O)N[C@@H](Cc1ccc(O)cc1)C(N)=O)[C@@H](C)O)C(C)C)[C@@H](C)O
Consider B3, for which the “Amylin receptor human EC50” value in assay [1] is 0.248 nM. Moreover, the “CTa receptor human EC50” value in assay [2] turned out to be 0.439 nM.

B4: N-alpha-[(S)-4-Carboxy-4-(19-carboxynonadecanoylamino)butyryl]-His-His-[His1,Glu14,His17,His29]-pramlintide (peptide)
peptide: {C20 diacid-γGlu}-HHHCNTATCATQRLAEFLHHSSNNFGPILPHTNVGSNTY-NH2
modifications: disulfide 4-9
SMILES: CC[C@H](C)[C@H](NC(=O)[C@@H]1CCCN1C(=O)CNC(=O)[C@H](Cc1ccccc1)NC(=O)[C@H](CC(N)=O)NC(=O)[C@H](CC(N)=O)NC(=O)[C@H](CO)NC(=O)[C@H](CO)NC(=O)[C@H](Cc1c[nH]cn1)NC(=O)[C@H](Cc1c[nH]cn1)NC(=O)[C@H](CC(C)C)NC(=O)[C@H](Cc1ccccc1)NC(=O)[C@H](CCC(=O)O)NC(=O)[C@H](C)NC(=O)[C@H](CC(C)C)NC(=O)[C@H](CCCNC(=N)N)NC(=O)[C@H](CCC(N)=O)NC(=O)[C@@H](NC(=O)[C@H](C)NC(=O)[C@@H]1CSSC[C@H](NC(=O)[C@H](Cc2c[nH]cn2)NC(=O)[C@H](Cc2c[nH]cn2)NC(=O)[C@H](Cc2c[nH]cn2)NC(=O)CC[C@H](NC(=O)CCCCCCCCCCCCCCCCCCC(=O)O)C(=O)O)C(=O)N[C@@H](CC(N)=O)C(=O)N[C@@H]([C@@H](C)O)C(=O)N[C@@H](C)C(=O)N[C@@H]([C@@H](C)O)C(=O)N1)[C@@H](C)O)C(=O)N[C@@H](CC(C)C)C(=O)N1CCC[C@H]1C(=O)N[C@@H](Cc1c[nH]cn1)C(=O)N[C@H](C(=O)N[C@@H](CC(N)=O)C(=O)N[C@H](C(=O)NCC(=O)N[C@@H](CO)C(=O)N[C@@H](CC(N)=O)C(=O)N[C@H](C(=O)N[C@@H](Cc1ccc(O)cc1)C(N)=O)[C@@H](C)O)C(C)C)[C@@H](C)O
As for B4, the “Amylin receptor human EC50” value in assay [1] turned out to be 0.167 nM. Further, the “CTa receptor human EC50” value in assay [2] amounted to 0.191 nM.

B5: N-alpha-[2-(2-{2-[2-(2-{2-[(S)-4-Carboxy-4-(19-carboxyheptadecanoylamino)butyrylamino]ethoxy}ethoxy)acetylamino]ethoxy}ethoxy)acetyl]-[des1,Glu14,His17]-pramlin … (peptide)
peptide: {19‑carboxyheptadecanoyl-γGlu-AEEA-AEEA}-CNTATCATQRLAEFLHHSSNNFGPILPPTNVGSNTY-NH2
modifications: disulfide 1-6; reading uncertain; also: printed as N-alpha-[2-(2-{2-[2-(2-{2-[(S)-4-Carboxy-4-(19-carboxyheptadecanoylamino)butyrylamino]ethoxy}ethoxy)acetylamino]ethoxy}ethoxy)acetyl]-[des1,Glu14,His17]-pramlintide
In the case of B5, in assay [1], the “Amylin receptor human EC50” value was found to be 0.334 nM. Besides, the “CTa receptor human EC50” value in assay [2] was 0.672 nM.

B6: N-alpha-[(S)-4-Carboxy-4-(19-carboxynonadecanoylamino)butyryl]-His-His-[His1,His3,Glu14,His17]-pramlintide (peptide)
peptide: {C20 diacid-γGlu}-HHHCHTATCATQRLAEFLHHSSNNFGPILPPTNVGSNTY-NH2
modifications: disulfide 4-9
SMILES: CC[C@H](C)[C@H](NC(=O)[C@@H]1CCCN1C(=O)CNC(=O)[C@H](Cc1ccccc1)NC(=O)[C@H](CC(N)=O)NC(=O)[C@H](CC(N)=O)NC(=O)[C@H](CO)NC(=O)[C@H](CO)NC(=O)[C@H](Cc1c[nH]cn1)NC(=O)[C@H](Cc1c[nH]cn1)NC(=O)[C@H](CC(C)C)NC(=O)[C@H](Cc1ccccc1)NC(=O)[C@H](CCC(=O)O)NC(=O)[C@H](C)NC(=O)[C@H](CC(C)C)NC(=O)[C@H](CCCNC(=N)N)NC(=O)[C@H](CCC(N)=O)NC(=O)[C@@H](NC(=O)[C@H](C)NC(=O)[C@@H]1CSSC[C@H](NC(=O)[C@H](Cc2c[nH]cn2)NC(=O)[C@H](Cc2c[nH]cn2)NC(=O)[C@H](Cc2c[nH]cn2)NC(=O)CC[C@H](NC(=O)CCCCCCCCCCCCCCCCCCC(=O)O)C(=O)O)C(=O)N[C@@H](Cc2c[nH]cn2)C(=O)N[C@@H]([C@@H](C)O)C(=O)N[C@@H](C)C(=O)N[C@@H]([C@@H](C)O)C(=O)N1)[C@@H](C)O)C(=O)N[C@@H](CC(C)C)C(=O)N1CCC[C@H]1C(=O)N1CCC[C@H]1C(=O)N[C@H](C(=O)N[C@@H](CC(N)=O)C(=O)N[C@H](C(=O)NCC(=O)N[C@@H](CO)C(=O)N[C@@H](CC(N)=O)C(=O)N[C@H](C(=O)N[C@@H](Cc1ccc(O)cc1)C(N)=O)[C@@H](C)O)C(C)C)[C@@H](C)O
B6: in assay [1], the “Amylin receptor human EC50” value is 0.286 nM. The “CTa receptor human EC50” value in assay [2] is 0.801 nM.
